The assay has as its target AMC009 SOSIP gp120-gp41 protomer (HIV-1 (clade B, donor H18877)). Briefly: cryo-EM structure; AMC009 SOSIPv5.2 trimer with 10-fold molar excess of ACS114 Fab for 12 hours at RT, then 6-fold molar excess of ACS122 Fab for 15 minutes; complex purified by SEC in TBS; ~4.0 Å.

Data on one substance can be found in publication PMC9714913.

In general, stoichiometry N refers to the number of molecules, sites or subunits per partner or assembly.

In turn, “AMC009 SOSIP gp120-gp41 protomer (complex)” gave a stoichiometry N of 3.
